Source: article PMC5376981 (Scientific Reports, 2014)

Key:
3D7-DBL6ε = 3D7-DBL6ε (Plasmodium falciparum 3D7, UniProt Q8I639, strain); test: ELISA
FCR3-DBL3X-4ε = FCR3-DBL3X-4ε (Plasmodium falciparum FCR3, UniProt Q6UDW7, strain); test: ELISA
3D7-DBL5ε = 3D7-DBL5ε (Plasmodium falciparum 3D7, UniProt Q8I639, strain); test: ELISA
FCR3-DBL6ε = FCR3-DBL6ε (Plasmodium falciparum FCR3, UniProt Q6UDW7, strain); test: ELISA
[1] = biological target: full-length VAR2CSA recombinant protein (3D7-DBL1X-6ε) (Plasmodium falciparum 3D7, UniProt Q8I639, strain); test: SPR

B1: VHH861 (VHH)
VHH: QVQLQESGGGLVQAGGSLRLSCAFSGSIFKMGWYRQAPGKERELVATITHIGVTDYAEFVKGRFTISRDNAKNTVYLLMNSLKPEDTAVYYCNVASRWPDYWGQGTQVTVSS
binding result (3D7-DBL6ε): no binding (tested: 0.3 µg/ml)
binding result (FCR3-DBL3X-4ε): binds
binding result (3D7-DBL5ε): no binding (tested: 0.3 µg/ml)
binding result (FCR3-DBL6ε): no binding (tested: 0.3 µg/ml)
Kd [1]: 35 nM
koff [1]: 0.001 s⁻¹
kon [1]: 29000 M⁻¹ s⁻¹
